Drawing on paper PMC5758809, this text covers IC50 for inhibition of native PP1 phosphatase activity ([32P]phosphorylase a as substrate) and IC50 for inhibition of recombinant PP1 phosphatase activity ([32P]phosphorylase a as substrate) for two molecules.

Test [1] has as its target native PP1 (rabbit) (UniProt P62139).
Test [2] concerns the target recombinant PP1 (UniProt P62139).

Sequence of UniProt P62139 (P62139 whole entry): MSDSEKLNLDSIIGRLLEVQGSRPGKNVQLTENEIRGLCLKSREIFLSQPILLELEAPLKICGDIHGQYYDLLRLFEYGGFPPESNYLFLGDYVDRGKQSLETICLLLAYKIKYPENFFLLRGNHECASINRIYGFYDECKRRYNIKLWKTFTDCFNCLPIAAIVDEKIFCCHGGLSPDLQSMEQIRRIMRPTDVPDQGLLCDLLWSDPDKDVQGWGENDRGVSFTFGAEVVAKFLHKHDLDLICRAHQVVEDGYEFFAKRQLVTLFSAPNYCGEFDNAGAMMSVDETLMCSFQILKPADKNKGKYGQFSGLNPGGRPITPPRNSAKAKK

B1: PKA-thiophosphorylated form of inhibitor-1 (natural protein)
chain: MEQDNSPRKIQFTVPLLEPHLDPEAAEQIRRRRPTPATLVLTSDQSSPEIDEDRIPNPHLKSTLAMSPRQRKKMTRITPTMKELQMMVEHHLGQQQQGEEPEGAAESTGTQESRPPGIPDTEVESRLGTSGTAKKTAECIPKTHERGSKEPSTKEPSTHIPPLDSKGANSV
modifications: thiophosphorylated Thr35
For the molecule B1, the IC50 for inhibition of native PP1 phosphatase activity ([32P]phosphorylase a as substrate) in test [1] is 19 nM. The IC50 for inhibition of recombinant PP1 phosphatase activity ([32P]phosphorylase a as substrate) in test [2] came out at 980 nM.

B2: PKA-thiophosphorylated form of inhibitor-1[I10A;F12A] (natural protein)
chain: MEQDNSPRKAQATVPLLEPHLDPEAAEQIRRRRPTPATLVLTSDQSSPEIDEDRIPNPHLKSTLAMSPRQRKKMTRITPTMKELQMMVEHHLGQQQQGEEPEGAAESTGTQESRPPGIPDTEVESRLGTSGTAKKTAECIPKTHERGSKEPSTKEPSTHIPPLDSKGANSV
modifications: thiophosphorylated Thr35
Consider B2, for which, in test [1], the IC50 for inhibition of native PP1 phosphatase activity ([32P]phosphorylase a as substrate) came out at 240 nM. Further, the IC50 for inhibition of recombinant PP1 phosphatase activity ([32P]phosphorylase a as substrate) in test [2] was 553 nM.
